For one test, the target named is T1, RR-SRC peptide.
T1 sequence (peptide): RRLIEDAEYAARG

In test [1] the target is Heat-denatured ERK2 (Rattus norvegicus (Rat)) (UniProt P63086).
A further test deals with T2, ETE peptide.
T2 sequence (peptide): RRREEETEEE

In a further test the target is T3, S6 peptide.
T3 sequence (peptide): RRLSSLRA

In the next test the target is T4, Band-3 peptide.
T4 sequence (peptide): MEELQDDYEDDMEERR

Test [2] deals with bovine myelin basic protein (bovine) (UniProt P02687).
Chain of bovine myelin basic protein (bovine) (P02687 whole entry): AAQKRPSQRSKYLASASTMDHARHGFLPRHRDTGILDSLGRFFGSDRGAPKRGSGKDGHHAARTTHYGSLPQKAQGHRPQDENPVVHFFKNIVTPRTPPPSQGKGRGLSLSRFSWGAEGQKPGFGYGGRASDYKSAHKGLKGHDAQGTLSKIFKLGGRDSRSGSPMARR
For the next test, the target named is T5, Syntide-2.
T5 sequence (peptide): PLARTLSVAGLPGKK

The target of test [3] is Recombinant ERK2 expressed in E. coli (Rattus norvegicus (Rat)) (UniProt P63086).
For a further test, the target named is T6, TEY peptide.
T6 sequence (peptide): PEHDHTGFLTEYVATRWYR

B1: MAPK activator 2 (MAPKK1b), 45 kDa polypeptide purified from EGF-stimulated A431 cells (enzyme)
chain: MPKKKPTPIQLNPAPDGSAVNGTSSAETNLEALQKKLEELELDEQQRKRLEAFLTQKQKVGELKDDDFEKISELGAGNGGVVFKVSHKPSGLVMARKLIHLEIKPAIRNQIIRELQVLHECNSPYIVGFYGAFYSDGEISICMEHMVIKGLTYLREKHKIMHRDVKPSNILVNSRGEIKLCDFGVSGQLIDSMANSFVGTRSYMSPERLQGTHYSVQSDIWSMGLSLVEMAVGRYPIPPPDAKELELMFGCQVEGDAAETPPRPRTTPGRPLSSYGMDSRPPMAIFQLLDYIVNEPPPKLPSGVFSLEFQDFVNKCLIKNPAERADLKQLMVHAFIKRSDAEEVDFAGWLCSTIGLNQPSTPTHAAGV
For B1, the Phosphorylation was 0.04 nmol/min/mg in the test with Histones; 0.005 nmol/min/mg in the test with RR-SRC peptide; less than 0.005 nmol/min/mg in test [1]; less than 0.005 nmol/min/mg with ETE peptide; 0.07 nmol/min/mg with S6 peptide; less than 0.005 nmol/min/mg with Kemptide. The Phosphorylation with Ribosomal S6 protein is less than 0.005 nmol/min/mg; with Casein, less than 0.005 nmol/min/mg; in the test with Band-3 peptide, less than 0.005 nmol/min/mg; in [2] it was 0.12 nmol/min/mg; with Syntide-2, 0.04 nmol/min/mg; with poly (Glu^80 -Tyr^20), less than 0.005 nmol/min/mg. Further, the Phosphorylation is 60 nmol/min/mg in test [3]; less than 0.005 nmol/min/mg in the test with Denatured enolase; less than 0.01 nmol/min/mg with Raf-1; 0.03 nmol/min/mg with Protamine; 0.005 nmol/min/mg with TEY peptide.

These data come from US5663314.
